# No end group written: not given here.
# Target: HLA-A*0201 (HLA-A2.1) (Homo sapiens, UniProt P04439, D140Y/D185E/D98H/E176V/E277Q/G131W/G231S/I119V/I121R/I166T/I218V/L300P/L318F/N151K/N90K/P208A/P217A/Q86G/Q94H/R138H/R169H/T345S)
# Assay: biochemical
# Assay type: binding
Sequence,A2.1,binding to HLA-A2.1 (column 3; no allele head shown for these rows),A*0201,IC50
KLLTQDLV,0.0004,–,–,–
KLLTQDLVQEKYL,–,0.0060,–,–
KLPGLLSRDL,0,–,–,–
KTGFLIIVL,–,0.0006,–,–
KTGFLIIVLV,–,0.0012,–,–
KTGLLIIVLA,–,<0.0002,–,–
LAETSYVKV,–,0,–,–
LIIVLVMI,–,0.0001,–,–
LIIVLVMIA,–,0,–,–
LIIVLVMIAM,–,0.0003,–,–
LLGDNQIM,0,–,–,–
LLIIVLAIIA,–,<0.0002,–,–
LLKYRAREPV,0,–,–,–
LLSRDLQQSL,0.0007,–,–,–
LQLVFGIDV,–,0.0004,–,–
LVFGIELJEV [Peptide 1345.04],–,–,0.7650,–
LVGFLLLKYRA,–,0.0004,–,–
LVMIAMEGG,<0.0002,–,–,–
LVMIAMEGGHA,–,0.0005,–,–
MIAMEGGHA,–,0.0005,–,–
MLGSVVGNWQYFFPV,–,0.012,–,–

Sequence,A2.1,binding to HLA-A2.1 (column 3; no allele head shown for these rows),A*0201,IC50
MSSCGVQGP,<0.0002,–,–,–
PIGHLYIFA,–,0,–,–
PKTGFLIIV,<0.0002,–,–,–
PLVLGTLEE,<0.0002,–,–,–
PLVLGTLEEV,0.0008,–,–,–
PQSPQGASA,<0.0002,–,–,–
PRKLLTQDL,<0.0002,–,–,–
PTGHSYVLV,–,0,–,–
PTGHSYVLVT,–,0,–,–
PVTKAEML,0,–,–,–
PVTKAEMLESV,–,0,–,–
QAAISRKMV,–,0,–,–
QAALSRKVA,–,0,–,–
QIMPKAGLL,0,–,–,–
QIMPKTGFL,0.0007,–,–,–
QIMPKTGFLI,–,0.0009,–,–
QLVFGIDV,0,–,–,–
QLVFGIDVKEA,–,0.0001,–,–
QQEALGLVC,<0.0002,–,–,–
QRQPSEGSS,<0.0002,–,–,–
QVMPKTGLL,–,0,–,–

Sequence,A2.1,binding to HLA-A2.1 (column 3; no allele head shown for these rows),A*0201,IC50
RAREPVTKA,–,0,–,–
RAVITKKVA,–,0,–,–
RCRTVIPHA,<0.0002,–,–,–
RKLLTQDLV,–,0,–,–
RVRFFFPSL,–,0.0001,–,–
SAFPTTINFT,–,0,–,–
SESLQLVFGI,–,0,–,–
SJPPPGTRV [Peptide 1345.03],–,–,0.0545,–
SLFRAVITKKV,–,0.0001,–,–
SLFRAVITKKVADLV,–,0.0004,–,–
SLHCKPEEAL,0.0002,–,–,–
SLRVLAAGL,0.0001,–,–,–
SLSAYIIRV [Peptide 1577.43],–,–,–,40 nM
SREEEGPST,<0.0002,–,–,–
STSCILESL,–,0.0002,–,–
TLEEVPTA,0,–,–,–
VIFSKASSSL,0,–,–,–
VITKKVADL,<0.0003,–,–,–
VITKKVADLV,0,–,–,–
VLEYVIKVSA,–,0.0002,–,–
VLGTLEEVPT,–,0.0004,–,–

Sequence,A2.1,binding to HLA-A2.1 (column 3; no allele head shown for these rows),A*0201,IC50
VLGTLEEVPTA,–,0.0002,–,–
VLVTCLGLSYDGL,–,0.0017,–,–
VMVTCLGLSV,–,0.30,–,–
VPTAGSTDP,<0.0002,–,–,–
VQAATSSSS,<0.0002,–,–,–
VQEKYLEYG,<0.0002,–,–,–
VTCLGLSYD,<0.0002,–,–,–
VTKAEMLESV,–,0,–,–
VTKAEMLGSV,–,<0.0002,–,–
VVEVVPISHL,–,<0.0002,–,–
YIFATCLGL,0.018,–,–,–
YKHCFPEIF,<0.0002,–,–,–
YLCNSSCMGGV [Peptide 1323.31],–,–,0.2300,–
YLEYGRCRT,–,0,–,–
YLEYGRCRTVI,–,0.0006,–,–
YLIMVKBWMV [Peptide 1334.05],–,–,0.6900,–
YMCNSSCMGGM [Peptide 1323.29],–,–,0.0075,–
YMIMVKBWMI [Peptide 1334.04],–,–,0.2700,–
YVKVLEYVI,–,0.0002,–,–
